According to paper PMC5543128:

Molecular target: T1, FAM-αC-conotoxin PrXA (Conus parius, UniProt P0C8S5 52-83)
T1 chain: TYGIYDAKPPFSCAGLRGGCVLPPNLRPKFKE
Assay: fluorescence anisotropy; no anisotropy change
Settings: tags: 5,6-carboxyfluorescein (FAM)

B1: S1 scramble (ssDNA)
DNA: GCCTGTTGTGAGCCTCCTGTCGAAGGGGATGGACCCCTACTTCATTCGCCCGCCTTGAGCGTTTATTCTTGTCTCCC
Q: Does B1 bind?
A: Result: no binding
